Columns and labels:
[1] = target: T1, Actin from rabbit skeletal muscle (F-actin) (rabbit, UniProt P68135 1-377); test: co-sedimentation; high-speed pelleting at 200,000 x g, 4 °C, 1 h; 8 µM G-actin polymerised with increasing Swip-1 in 1x KMEI (10 mM imidazole pH 7.0, 50 mM KCl, 1 mM MgCl2, 1 mM EGTA) for 2 h at 4 °C; absence of calcium; fit to independent, identical binding sites; conditions: both partners purified
[2] = target: T1, Actin from rabbit skeletal muscle …; test: co-sedimentation; high-speed pelleting at 200,000 x g, 4 °C, 1 h; 8 µM G-actin polymerised with increasing Swip-1 in 1x KMI (10 mM imidazole pH 7.0, 50 mM KCl, 1 mM MgCl2) with 1 mM CaCl2 for 2 h at 4 °C; presence of calcium; fit to independent, identical binding sites; conditions: both partners purified

B1: Drosophila Swip-1 (EFhD2/Swip-1), recombinant wild type (natural protein)
chain: MSVSSNASSASNKDSVDSPSSTTNTDSSELTHILNRRQEIMESQEAGIEVRRTYKVVNVYTDFPEFSRNQIKDYQKTFNTYDTARDGFLDLQELKFMMEKLGAPQTHLGLKQMIAEVDEDNDGKISFREFLLIFRKAQAGELDSDSGLNQLARLTEVDVEQVGVSGAKNFFEAKIEQQLRTNKFHDEIRAEQEERRREEEERAQRRQQFQQRAAIFQ
notes: residues left after PreScission cleavage are not described; source: E. coli Rossetta 2, purified (glutathione agarose, GST cleaved by PreScission protease, size-exclusion chromatography)
Question: For B1, which Kd [1] is on record?
Answer: 4300 ± 1300 nM

Question: And the “stoichiometry N” value [1]?
Answer: ~1 Swip-1:actin

Question: What about the Kd [2] of the same binder?
Answer: 900 ± 100 nM

Question: And the “stoichiometry N” value [2]?
Answer: ~0.5 Swip-1:actin

— article PMC9076686, “Calcium bursts allow rapid reorganization of EFhD2/Swip-1 cross-linked actin networks in epithelial wound closure” (Nature Communications, 2022)
